{"source": "the Human Domainome abundance scans (Beltran et al. 2025)", "parents": {"B1": {"name": "SAM and SH3 domain-containing protein 1, residues 630 to 700; numbered along this chain, O94885 (parent)", "chain": "GRPPQPKSVEDLLDRINLKEHMPTFLFNGYEDLDTFKLLEEEDLDELNIRDPEHRAVLLTAVELLQEYDSN"}, "B2": {"name": "Formin-binding protein 4, residues 200 to 261; numbered along this chain, Q8N3X1 (parent)", "chain": "SGWQYDTQCSLAGVGIEMGDWQEVWDENTGCYYYWNTQTNEVTWELPQYLATQVQGLQHYQP"}}, "note": "± gives the uncertainty stated by the source.", "data": [{"variants_of": "B1", "assay": "abundance fitness (aPCA) (normalised: wild type 0, dead -1); higher = more abundant; growth selection in yeast, the domain comes from the species named", "conditions": "Homo sapiens", "values": [{"variant": "GRPPQPKSVEDLLDRINLKEHMPEFLFNGYEDLDTFKLLEEEDLDELNIRDPEHRAVLLTAVELLQEYDSN", "note": "[T24E]", "abundance fitness": "-0.435 ± 0.077"}, {"variant": "GRPPQPKSVEDLLDRINLKEHMPDFLFNGYEDLDTFKLLEEEDLDELNIRDPEHRAVLLTAVELLQEYDSN", "note": "[T24D]", "abundance fitness": "-0.622 ± 0.064"}, {"variant": "GRPPQPKSVEDLLDRINLKEHMPTFLFNGYEDLDTFKLLEEEDLDELNIRDPEHRAVLLSAVELLQEYDSN", "note": "[T60S]", "abundance fitness": "0.227 ± 0.032"}, {"variant": "GRPPQPKSVEDLLDRINLKEHMPTFLFNGYEDLDTFKLLEEEDLDELNIRRPEHRAVLLTAVELLQEYDSN", "note": "[D51R]", "abundance fitness": "-0.611 ± 0.046"}, {"variant": "GRPPQPKSVEDLLDRINLKEHMPTFLFNGYEDLDTFKLLEEEDLDELNIRNPEHRAVLLTAVELLQEYDSN", "note": "[D51N]", "abundance fitness": "-0.159 ± 0.049"}, {"variant": "GRPPQPKSVEDLLDRINLKEHMPTFLFNNYEDLDTFKLLEEEDLDELNIRDPEHRAVLLTAVELLQEYDSN", "note": "[G29N]", "abundance fitness": "-0.762 ± 0.09"}, {"variant": "GRPPQPKSVEDLLDRINLKEHMPTFLFNGYEDLDTFKLLEEEDLDELNIRDPEHRAMLLTAVELLQEYDSN", "note": "[V57M]", "abundance fitness": "0.067 ± 0.045"}, {"variant": "GRPPQPKSVEDLLDRINLKEHMPTFLFNGYEDLDTFKLLEEEDLDELNIRDPEHRAVLLTAVELLGEYDSN", "note": "[Q66G]", "abundance fitness": "-0.197 ± 0.052"}, {"variant": "GRPPQPKSVEDLLDRINLKEHMPTFLFNGYEDLDTFKLLEEEDLDELNIRDPEHRAVLLTAVELLAEYDSN", "note": "[Q66A]", "abundance fitness": "-0.317 ± 0.048"}, {"variant": "GRPPQPKSVEDLLDRINLKEHMPTFLFNGYEDLDTFKLLEEEDLDELNIRDPEHRAVLLTAVELLWEYDSN", "note": "[Q66W]", "abundance fitness": "-0.21 ± 0.061"}, {"variant": "GRPPQPKSVEDLLDRINLKEHMPTFLFNGYEDLDTEKLLEEEDLDELNIRDPEHRAVLLTAVELLQEYDSN", "note": "[F36E]", "abundance fitness": "-0.678 ± 0.097"}, {"variant": "GRPPQPKSVEDLLDRINLKEHMPTFLFNGYEDLDTLKLLEEEDLDELNIRDPEHRAVLLTAVELLQEYDSN", "note": "[F36L]", "abundance fitness": "-0.365 ± 0.043"}, {"variant": "GRPPQPKSVEDLLDRINLKEHMPTFLFNGYEDLDTFKLLEENDLDELNIRDPEHRAVLLTAVELLQEYDSN", "note": "[E42N]", "abundance fitness": "-0.094 ± 0.046"}, {"variant": "GRPPQPKSVEDLLDRINLKEHMPTFLFNGYEDLDTFKLLEEQDLDELNIRDPEHRAVLLTAVELLQEYDSN", "note": "[E42Q]", "abundance fitness": "-0.023 ± 0.049"}, {"variant": "GRPPQPKSVEDLLDRINLKEHMPTFLFNGYEDLDTFKLLEEEDLDELNIRDPEHRAVLLTAVELIQEYDSN", "note": "[L65I]", "abundance fitness": "-0.433 ± 0.052"}, {"variant": "GRPPQPKSVEDLRDRINLKEHMPTFLFNGYEDLDTFKLLEEEDLDELNIRDPEHRAVLLTAVELLQEYDSN", "note": "[L13R]", "abundance fitness": "-0.803 ± 0.06"}, {"variant": "GRPPQPKSVEDLLDRINLKEHMPTFLFNGYEDLDTFKLLEEEDEDELNIRDPEHRAVLLTAVELLQEYDSN", "note": "[L44E]", "abundance fitness": "-0.757 ± 0.077"}, {"variant": "GRPPQPKSVEDLLDRINLKEHMPTFLFNGYEHLDTFKLLEEEDLDELNIRDPEHRAVLLTAVELLQEYDSN", "note": "[D32H]", "abundance fitness": "-0.187 ± 0.048"}, {"variant": "GRPPQPKSVEDLLDRINLKEHMPTFLFNGYEILDTFKLLEEEDLDELNIRDPEHRAVLLTAVELLQEYDSN", "note": "[D32I]", "abundance fitness": "-0.568 ± 0.079"}, {"variant": "GRPPQPKSVEDLLDRINLKEHMPTFLFNGYEDLDTFKLLEEEWLDELNIRDPEHRAVLLTAVELLQEYDSN", "note": "[D43W]", "abundance fitness": "-0.928 ± 0.097"}, {"variant": "GRPPQPKSVEDLLDRINLKEHMPTFLFNGYEDLDTFKLLEEEGLDELNIRDPEHRAVLLTAVELLQEYDSN", "note": "[D43G]", "abundance fitness": "-0.444 ± 0.053"}, {"variant": "GRPPQPKSVEDLLDRINLKEHMPTFLFNGSEDLDTFKLLEEEDLDELNIRDPEHRAVLLTAVELLQEYDSN", "note": "[Y30S]", "abundance fitness": "-0.706 ± 0.052"}, {"variant": "GRPPQPKSVEDLLDRINLKEHMPTFLFNGCEDLDTFKLLEEEDLDELNIRDPEHRAVLLTAVELLQEYDSN", "note": "[Y30C]", "abundance fitness": "-0.704 ± 0.076"}, {"variant": "GRPPQPKSVEDLLDRINLKEHMPTFLFNGYEDLDLFKLLEEEDLDELNIRDPEHRAVLLTAVELLQEYDSN", "note": "[T35L]", "abundance fitness": "-0.515 ± 0.047"}, {"variant": "GRPPQPKSVEDLLDRINLKEHMPTFLFNGYEDLDDFKLLEEEDLDELNIRDPEHRAVLLTAVELLQEYDSN", "note": "[T35D]", "abundance fitness": "0.108 ± 0.051"}]}, {"variants_of": "B2", "assay": "abundance fitness (aPCA) (normalised: wild type 0, dead -1); higher = more abundant; growth selection in yeast, the domain comes from the species named", "conditions": "Homo sapiens", "values": [{"variant": "SGWQYDTQCSLAGVGIEMGDWQEVWDENTGCYYYWNTQTNEVTWELPQYLATQVQGLQHYQE", "note": "[P62E]", "abundance fitness": "-0.469 ± 0.42"}, {"variant": "SGWQYDTQCSLAGVGIEMGDWQEVWDENTGCYYYWNTQTNEVTWELPQYLATQVQGLQHYQI", "note": "[P62I]", "abundance fitness": "-0.268 ± 0.21"}, {"variant": "SGWQYDTQCSLAGVGIEMGDWQEVWDENTGCYYYWNTQTNEVTWELPQYLATQVQGLQHYQS", "note": "[P62S]", "abundance fitness": "0.045 ± 0.11"}, {"variant": "SGWQYDTQCSLAGVGIEMGDWQEVWDENTGCYYYWNTQTNEVTWELPQYLATQVQGLQHYQK", "note": "[P62K]", "abundance fitness": "0.194 ± 0.17"}, {"variant": "SGWQYDTQCSLAGVGIEMGDWQEVWDENTGCYYYWNTQTNEVTWELPQYLATQVQGLQHYQY", "note": "[P62Y]", "abundance fitness": "-0.161 ± 0.23"}, {"variant": "SGWQYDTQCSLAGVGIEMGDWQEVWDENTGCYYYWNTQTNEVTWELPQYLATQVQGLQHYQR", "note": "[P62R]", "abundance fitness": "-0.29 ± 0.093"}, {"variant": "SGWQYDTQCSLAGVGIEMGDWQEVWDENTGCYYYWNTQTNEVTWELPQYLATQVQGLQHYQT", "note": "[P62T]", "abundance fitness": "-0.009 ± 0.12"}, {"variant": "SGWQYDTQCSLAGVGIEMGDWQEVWDENTGCYYYWNTQTNEVTWELPQYLATQVQGLQHYQL", "note": "[P62L]", "abundance fitness": "-0.011 ± 0.14"}, {"variant": "SGWQYDTQCSLAGVGIEMGDWQEVWDENTGCYYYWNTQTNEVTWELPQYLATQVQGLQHYQV", "note": "[P62V]", "abundance fitness": "-0.423 ± 0.16"}, {"variant": "SGWQYDTQCSLAGVGIEMGDWQEVWDENTGCYYYWNTQTNEVTWELPQYLATQVQGLQHYQM", "note": "[P62M]", "abundance fitness": "0.218 ± 0.32"}, {"variant": "SGWQYDTQCSLAGVGIEMGDWQEVWDENTGCYYYWNTQTNEVTWELPQYLATQVQGLQHYQH", "note": "[P62H]", "abundance fitness": "0.084 ± 0.32"}, {"variant": "SGWQYDTQCSLAGVGIEMGDWQEVWDENTGCYYYWNTQTNEVTWELPQYLATQVQGLQHYQF", "note": "[P62F]", "abundance fitness": "-0.103 ± 0.26"}, {"variant": "SGWQYDTQCSLAGVGIEMGDWQEVWDENTGCYYYWNTQTNEVTWELPQYLATQVQGLQHYQG", "note": "[P62G]", "abundance fitness": "-0.028 ± 0.11"}, {"variant": "SGWQYDTQCSLAGVGIEMGDWQEVWDENTGCYYYWNTQTNEVTWELPQYLATQVQGLQHYQQ", "note": "[P62Q]", "abundance fitness": "-0.237 ± 0.16"}]}]}
